{"source": "patent US20130142802A1", "about": "(published 2013)", "binders": {"B1": {"name": "human scFv clone 6, soluble (scFv)", "scFv": "QSVLTQPPSVSAAPGQKVTISCSGSSSNIGNNYVSWYQQLPGTAPKLLIYDNNKRPSGIPDRFSDSKSGTSATLGITGLQTGDEADYYCGTWDSSLSAVVFGGGTKLTVLGSGGSTITSYNVYYTKLSSSGTEVQLVQSGAEVKKPGSSVKVSCKASGGTFSSYAISWVRQAPGQGLEWMGRIIPILGIANYAQKFQGRVTITADKSTSTAYMELSSLRSEDTAVYYCARDPLLWSYFDYWGQGTLVTVSS", "notes": "Tags are not described; also called scFv-6; Atto-HuMab-06"}, "B2": {"name": "human scFv clone 6, phage-displayed (scFv)", "scFv": "B1 scFv", "notes": "also called scFv-6; Atto-HuMab-06"}, "B3": {"name": "Flag-FGFR2-IIIb expressed on CHO cells (receptor, human)", "chain": "RPSFSLVEDTTLEPEEPPTKYQISQPEVYVAAPGESLEVRCLLKDAAVISWTKDGVHLGPNNRTVLIGEYLQIKGATPRDSGLYACTASRTVDSETWYFMVNVTDAISSGDDEDDTDGAEDFVSENSNNKRAPYWTNTEKMEKRLHAVPAANTVKFRCPAGGNPMPTMRWLKNGKEFKQEHRIGGYKVRNQHWSLIMESVVPSDKGNYTCVVENEYGSINHTYHLDVVERSPHRPILQAGLPANASTVVGGDVEFVCKVYSDAQPHIQWIKHVEKNGSKYGPDGLPYLKVLKHSGINSSNAEVLALFNVTEADAGEYICKVSNYIGQANQSAWLTVLPKQQAPGREKEITASPDYLEIAIYCIGVFLIACMVVTVILCRMKNTTKKPDFSSQPAVHKLTKRIPLRRQVTVSAESSSSMNSNTPLVRITTRLSSTADTPMLAGVSEYELPEDPKWEFPRDKLTLGKPLGEGCFGQVVMAEAVGIDKDKPKEAVTVAVKMLKDDATEKDLSDLVSEMEMMKMIGKHKNIINLLGACTQDGPLYVIVEYASKGNLREYLRARRPPGMEYSYDINRVPEEQMTFKDLVSCTYQLARGMEYLASQKCIHRDLAARNVLVTENNVMKIADFGLARDINNIDYYKKTTNGRLPVKWMAPEALFDRVYTHQSDVWSFGVLMWEIFTLGGSPYPGIPVEELFKLLKEGHRMDKPANCTNELYMMMRDCWHAVPSQRPTFKQLVEDLDRILTLTTNEEYLDLSQPLEQYSPSYPDTRSSCSSGDDSVFSPDPMPYEPCLPQYPHINGSVKT", "notes": "whole, on cells; also called CHO-FGFR2-IIIb; FGFR2-IIIb-expressing CHO cells; not shown: Flag-tag at the N-terminus"}, "B4": {"name": "dcFv-8 (Fc-fusion of human scFv Clone 8) (Fc fusion)", "chain": "QSVLTQPPSVSAAPGQKVTISCSGSSSNIGNNYVSWYQQLPGTAPKLLIYDNNKRPSGIPDRFSGSKSGTSATLAISGLQSEDEADYYCAAWDDSLNGVVFGGGTKLTVLGSGGSTITSYNVYYTKLSSSGTQVQLVQSGAEVKKPGSSVKVSCKASGGTFSSYAISWVRQAPGQGLEWMGRIIPIFGTANYAQKFQGRVTITADESTSTAYMELNSLRSEDTAVYYCARDRWDWNDAFDIWGQGTMVTVSS", "notes": "Bivalent fusion construct to human IgG Fc; also called clone dcFv-8; not shown: human IgG1 Fc of vector pFUSE-hIgG1e2-Fc2(IL2ss) (Invivogen)"}, "B5": {"name": "human scFv clone 8, soluble (scFv)", "scFv": "B4 chain", "notes": "Tags are not described; also called scFv-8; Atto-HuMab-08"}, "B6": {"name": "soluble FGFR2 IIIc-Fc fusion protein (Fc fusion)", "chain": "RPSFSLVEDTTLEPEGAPYWTNTEKMEKRLHAVPAANTVKFRCPAGGNPMPTMRWLKNGKEFKQEHRIGGYKVRNQHWSLIMESVVPSDKGNYTCVVENEYGSINHTYHLDVVERSPHRPILQAGLPANASTVVGGDVEFVCKVYSDAQPHIQWIKHVEKNGSKYGPDGLPYLKVLKAAGVNTTDKEIEVLYIRNVTFEDAGEYTCLAGNSIGISFHSAWLTVLPAPGREKEITASPDYLERSDKTHTCPPCPAPELLGGPSVFLFPPKPKDTLYITREPEVTCVVVDVSHEDPEVKFNWYVDGVEVHNAKTKPREEQYNSTYRVVSVLTVLHQDWLNGKEYKCKVSNKALPAPIEKTISKAKGQPREPQVYTLPPSREEMTKNQVSLTCLVKGFYPSDIAVEWESNGQPENNYKTTPPVLDSDGSFFLYSKLTVDKSRWQQGNVFSCSVMHEALKFHYTQKSLSLSPGK", "notes": "Extracellular domain of human FGFR2 beta (IIIc), aa 1-262, Arg-Ser linker, human IgG1 Fc; signal peptide 1-21 left out; also called FGFR2 beta-ECD; FGFR2c beta-EDC"}}, "key": {"FGFR2 IIIb-Fc [1]": {"biological_target": "T1, FGFR2 IIIb-Fc (human)", "T1 construct": "also called FGFR2IIIb beta-ECD; FGFR2IIIb-hFc", "T1 chain": "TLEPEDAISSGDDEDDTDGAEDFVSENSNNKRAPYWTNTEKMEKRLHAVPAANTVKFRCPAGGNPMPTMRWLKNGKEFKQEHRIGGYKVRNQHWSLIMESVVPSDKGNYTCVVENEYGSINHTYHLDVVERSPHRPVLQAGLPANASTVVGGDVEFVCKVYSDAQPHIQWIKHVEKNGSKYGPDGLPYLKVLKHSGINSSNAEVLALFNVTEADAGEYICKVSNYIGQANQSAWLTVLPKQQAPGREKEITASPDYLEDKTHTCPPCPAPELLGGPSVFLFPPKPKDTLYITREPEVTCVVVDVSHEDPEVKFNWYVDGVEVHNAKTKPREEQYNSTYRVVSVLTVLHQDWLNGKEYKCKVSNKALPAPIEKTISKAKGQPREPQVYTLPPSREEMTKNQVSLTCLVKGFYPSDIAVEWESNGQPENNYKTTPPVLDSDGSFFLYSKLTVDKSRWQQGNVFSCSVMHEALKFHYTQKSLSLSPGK", "assay": "ELISA: soluble scFv on coated protein (2 ug/ml)"}, "human ovalbumin (OA) [2]": {"biological_target": "human ovalbumin (OA) (human)", "assay": "ELISA: soluble scFv on coated protein (2 ug/ml)"}, "[3]": {"biological_target": "B6", "assay": "ELISA: soluble scFv on coated protein (2 ug/ml)"}, "human ferritin (Fer) [4]": {"biological_target": "T2, human ferritin (Fer) (human, UniProt P02794 2-183; P02792 2-175, Natural ferritin is a 24-subunit shell of H and L chains in a tissue-dependent ratio, with an iron core. The letters carry one copy of each subunit.)", "T2 construct": "also called Feritin", "assay": "phage ELISA on coated protein"}, "human ovalbumin (OA) [5]": {"biological_target": "human ovalbumin (OA) (human)", "assay": "phage ELISA on coated protein"}, "human ferritin (Fer) [6]": {"biological_target": "T2, human ferritin (Fer)", "assay": "phage ELISA on coated protein", "remark": "listed apart in the source"}, "[7]": {"biological_target": "T3, 128AA-mFc (128-amino acid loop-3 fragment of FGFR2IIIc fused to mouse Fc) (human)", "T3 chain": "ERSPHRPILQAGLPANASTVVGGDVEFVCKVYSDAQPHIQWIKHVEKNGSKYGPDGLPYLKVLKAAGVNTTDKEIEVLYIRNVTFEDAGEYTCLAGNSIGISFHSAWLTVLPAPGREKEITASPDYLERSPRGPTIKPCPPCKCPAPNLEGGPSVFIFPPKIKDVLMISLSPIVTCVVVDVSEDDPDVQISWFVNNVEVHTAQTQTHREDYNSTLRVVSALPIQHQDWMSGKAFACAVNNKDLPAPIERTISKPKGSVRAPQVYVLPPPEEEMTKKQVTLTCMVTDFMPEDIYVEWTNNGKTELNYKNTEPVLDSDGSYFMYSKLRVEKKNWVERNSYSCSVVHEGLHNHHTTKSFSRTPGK", "assay": "phage ELISA on coated protein"}, "[8]": {"biological_target": "T4, dcFv-01 (Fc-fusion of human scFv Clone 1) (human)", "T4 construct": "scFv-1 fragment fused to the N-terminus of human IgG1 Fc; bivalent; also called dcFv-1; clone dcFv-1; not shown: human IgG1 Fc of vector pFUSE-hIgG1e2-Fc2(IL2ss) (Invivogen)", "assay": "immunocytochemical staining of CHO cells transiently expressing FGFR2IIIb"}, "[9]": {"biological_target": "B3", "assay": "immunocytochemical staining of CHO cells transiently expressing FGFR2IIIb"}, "[10]": {"biological_target": "B6", "assay": "competition ELISA: antibody pre-incubated with FGFR2IIIc-Fc, then added to ligand-coated plate (legend paragraph 175: FGF8; paragraph 640: FGF2); bound receptor detected"}, "FGFR2 IIIb-Fc [11]": {"biological_target": "T1, FGFR2 IIIb-Fc", "assay": "ELISA with soluble scFv, plate coated with FGFR2 IIIb Fc fusion (whole extracellular domain)"}, "FGF8b": {"biological_target": "T5, FGF8b (UniProt P55075-3 23-215)", "T5 construct": "Coated on ELISA plates; also called ligand protein FGF8b", "T5 sequence (looked up)": "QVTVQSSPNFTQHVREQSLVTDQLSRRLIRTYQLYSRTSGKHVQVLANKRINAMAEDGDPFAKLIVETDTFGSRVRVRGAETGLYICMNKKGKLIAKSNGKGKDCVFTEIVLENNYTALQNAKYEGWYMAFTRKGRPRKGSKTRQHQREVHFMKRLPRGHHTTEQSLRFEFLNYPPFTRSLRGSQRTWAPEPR", "assay": "ELISA: receptor Fc fusion (4 ug/ml) on coated FGF8b, anti-human IgG Fc-HRP"}, "[12]": {"biological_target": "T4, dcFv-01 (Fc-fusion of human scFv Clone …)", "assay": "competition ELISA: antibody pre-incubated with FGFR2IIIc-Fc, then added to ligand-coated plate (legend paragraph 175: FGF8; paragraph 640: FGF2); bound receptor detected"}}, "data": [{"binder": "B1", "values": [{"measurement": "OD (450 nm)", "setting": "FGFR2 IIIb-Fc [1]", "result": 0.012}, {"measurement": "OD (450 nm)", "setting": "human ovalbumin (OA) [2]", "result": 0.015}, {"measurement": "OD (450 nm)", "setting": "[3]", "result": 0.571}]}, {"binder": "B2", "values": [{"measurement": "binding result", "setting": "human ferritin (Fer) [4]", "result": "no binding"}, {"measurement": "OD (450 nm)", "setting": "human ovalbumin (OA) [5]", "result": 0.018}, {"measurement": "OD (450 nm)", "setting": "human ferritin (Fer) [6]", "result": 0.006}, {"measurement": "OD (450 nm)", "setting": "[7]", "result": 0.106}]}, {"binder": "B3", "values": [{"measurement": "binding result", "setting": "[8]", "result": "no binding"}]}, {"binder": "B4", "values": [{"measurement": "binding result", "setting": "[9]", "result": "no binding"}, {"measurement": "IC50 (read off the curve)", "setting": "[10]", "result": "~300", "unit": "pM"}]}, {"binder": "B5", "values": [{"measurement": "binding result", "setting": "[9]", "result": "no binding"}, {"measurement": "binding result", "setting": "FGFR2 IIIb-Fc [11]", "result": "no binding"}, {"measurement": "OD (450 nm)", "setting": "FGFR2 IIIb-Fc [1]", "result": 0.003}, {"measurement": "OD (450 nm)", "setting": "human ovalbumin (OA) [2]", "result": 0.028}, {"measurement": "OD (450 nm)", "setting": "[3]", "result": 0.8}]}, {"binder": "B6", "values": [{"measurement": "binding result", "setting": "FGF8b", "result": "binds"}, {"measurement": "binding result", "setting": "[12]", "result": "binds"}]}]}
